We go through one molecule from article PMC5240623, “Methylation specific targeting of a chromatin remodeling complex from sponges to humans” (Scientific Reports, 2017).

The target of this test is T1, HsGATAD2A coiled-coil domain, uncleaved fusion peptide (human, UniProt Q86YP4 137-178).
T1 construct: GATAD2A (p66α), human, coiled-coil domain; the purification of this construct is not described here; also called GATAD2A (p66α)
The test can be described thus: ITC; fusion peptides left uncleaved; 50 mM Hepes pH 7.4, 150 mM NaCl, 298 K; MicroCal Auto-iTC200, 20–24 injections; HsMBD2 (1.8 mM), EmGATAD2A/B (2.74 mM), DmGATAD2A/B (2.5 mM) injected into HsGATAD2A (100 μM), EmMBD2/3 (270 μM), DmMBD2/3 (250 μM); one-site binding model. The following applies: both partners purified.

No end group written: not given here.

T1 sequence (Q86YP4 137-178): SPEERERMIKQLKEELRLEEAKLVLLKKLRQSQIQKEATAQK

B1: HsMBD2 coiled-coil domain, uncleaved fusion peptide (domain or fragment, human)
chain: KAFIVTDEDIRKQEERVQQVRKKLEEALMADILS
modifications: also: uncleaved fusion tag
notes: MBD2, human, coiled-coil domain; the purification of this construct is not described here
For B1, the Kd – broadly, a measure of binding affinity in units of concentration – came out at 48 nM; the dH was -9.93 kcal/mol; the stoichiometry N – broadly, the number of molecules, sites or subunits per partner or assembly – was 1.3.
